As usually defined, the stoichiometry N is the number of molecules, sites or subunits per partner or assembly.

Assay [1] addresses synthetic nanobody (sybody) Sb44. Description: SEC. (In general: In gel filtration, larger molecules generally elute earlier.)
Assay [2] has as its target Sb44 V100C. Description: SEC.
Assay [3] addresses Sb44 V100C. Description: SDS-PAGE under non-reducing and reducing conditions.

B1: synthetic nanobody (sybody) Sb44 (VHH)
VHH: QVQLVESGGGLVQAGGSLRLSCAASGFPVGRASMWWYRQAPGKEREWVAAISSYGWVTAYADSVKGRFTISRDNAKNTVYLQMNSLKPEDTAVYYCEVSVGTGYRGQGTQVTVSA
In assay [1], B1 registered a stoichiometry N of 2.

B2: Sb44 V100C (VHH)
VHH: QVQLVESGGGLVQAGGSLRLSCAASGFPVGRASMWWYRQAPGKEREWVAAISSYGWVTAYADSVKGRFTISRDNAKNTVYLQMNSLKPEDTAVYYCEVSCGTGYRGQGTQVTVSA
In the case of B2, the stoichiometry N in assay [2] and in assay [3] was 2 in each case.

(Values after publication doi:10.1101/2024.11.22.624932.)
